These results are taken from publication PMC5560056 (Molecular cell, 2016).

The Kd is the equilibrium constant for the complex coming apart.

For assay [1], the target named is T1, recombinant human Pds5B_(1–1120) (human, UniProt Q9NTI5 1-1120).
T1 sequence (looked up): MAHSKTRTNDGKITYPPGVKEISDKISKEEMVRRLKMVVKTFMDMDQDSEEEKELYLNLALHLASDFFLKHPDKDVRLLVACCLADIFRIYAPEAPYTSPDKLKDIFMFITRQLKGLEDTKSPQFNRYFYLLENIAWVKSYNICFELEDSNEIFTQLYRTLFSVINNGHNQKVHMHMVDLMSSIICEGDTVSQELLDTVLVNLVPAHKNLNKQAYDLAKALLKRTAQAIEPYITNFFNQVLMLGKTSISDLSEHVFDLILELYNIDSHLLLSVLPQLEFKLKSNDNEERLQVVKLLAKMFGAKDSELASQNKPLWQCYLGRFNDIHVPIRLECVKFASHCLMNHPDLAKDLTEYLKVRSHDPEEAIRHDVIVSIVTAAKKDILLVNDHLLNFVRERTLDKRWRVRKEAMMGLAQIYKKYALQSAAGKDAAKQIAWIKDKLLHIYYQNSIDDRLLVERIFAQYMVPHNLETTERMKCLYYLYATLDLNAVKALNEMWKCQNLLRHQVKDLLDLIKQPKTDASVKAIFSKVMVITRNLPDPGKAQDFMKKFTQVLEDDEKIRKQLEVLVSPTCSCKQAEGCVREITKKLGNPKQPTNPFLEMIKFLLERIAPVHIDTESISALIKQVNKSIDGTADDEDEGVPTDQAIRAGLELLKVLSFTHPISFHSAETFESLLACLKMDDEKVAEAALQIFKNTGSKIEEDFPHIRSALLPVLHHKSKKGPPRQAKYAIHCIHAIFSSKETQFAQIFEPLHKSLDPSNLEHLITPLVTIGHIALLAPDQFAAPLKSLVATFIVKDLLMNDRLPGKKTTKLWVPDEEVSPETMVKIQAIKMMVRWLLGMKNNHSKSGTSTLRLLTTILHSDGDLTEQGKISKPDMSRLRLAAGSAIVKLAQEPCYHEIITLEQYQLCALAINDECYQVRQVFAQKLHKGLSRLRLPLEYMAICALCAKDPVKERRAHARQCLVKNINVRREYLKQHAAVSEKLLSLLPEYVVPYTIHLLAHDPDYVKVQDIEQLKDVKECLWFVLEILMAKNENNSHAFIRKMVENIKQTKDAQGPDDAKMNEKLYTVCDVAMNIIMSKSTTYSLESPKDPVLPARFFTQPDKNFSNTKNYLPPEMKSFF
Briefly: pull-down.

For assay [2], the target named is T2, recombinant human Pds5B_(21–1120) (human, UniProt Q9NTI5 21-1120).
T2 sequence (looked up): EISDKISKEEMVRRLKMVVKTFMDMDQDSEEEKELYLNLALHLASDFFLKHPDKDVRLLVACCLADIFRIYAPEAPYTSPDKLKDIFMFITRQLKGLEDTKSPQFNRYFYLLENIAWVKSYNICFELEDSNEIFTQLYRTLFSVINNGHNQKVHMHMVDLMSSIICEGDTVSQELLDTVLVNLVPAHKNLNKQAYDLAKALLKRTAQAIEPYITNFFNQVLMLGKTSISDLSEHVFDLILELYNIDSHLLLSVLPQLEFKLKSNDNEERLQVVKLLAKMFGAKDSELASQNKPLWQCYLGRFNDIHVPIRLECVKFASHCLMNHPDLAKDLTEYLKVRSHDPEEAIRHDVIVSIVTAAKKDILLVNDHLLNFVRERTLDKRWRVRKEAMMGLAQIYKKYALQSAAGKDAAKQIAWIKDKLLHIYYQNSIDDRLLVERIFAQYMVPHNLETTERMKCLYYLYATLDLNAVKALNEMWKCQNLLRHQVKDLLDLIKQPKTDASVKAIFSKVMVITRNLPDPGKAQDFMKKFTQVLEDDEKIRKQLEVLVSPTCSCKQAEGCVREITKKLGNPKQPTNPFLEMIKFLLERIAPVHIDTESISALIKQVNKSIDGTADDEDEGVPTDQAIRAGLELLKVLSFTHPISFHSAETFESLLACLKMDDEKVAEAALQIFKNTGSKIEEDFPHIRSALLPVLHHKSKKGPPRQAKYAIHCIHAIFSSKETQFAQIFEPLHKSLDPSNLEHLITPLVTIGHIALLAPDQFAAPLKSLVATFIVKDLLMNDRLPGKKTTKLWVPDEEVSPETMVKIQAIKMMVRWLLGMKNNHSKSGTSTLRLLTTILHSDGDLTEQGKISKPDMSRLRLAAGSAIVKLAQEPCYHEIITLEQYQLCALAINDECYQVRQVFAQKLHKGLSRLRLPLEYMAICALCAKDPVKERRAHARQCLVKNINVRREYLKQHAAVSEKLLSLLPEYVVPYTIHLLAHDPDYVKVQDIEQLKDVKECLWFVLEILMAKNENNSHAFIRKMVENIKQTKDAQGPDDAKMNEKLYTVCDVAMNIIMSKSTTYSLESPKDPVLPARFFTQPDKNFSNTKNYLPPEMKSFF
Briefly: ITC. A general note: In ITC the heat of successive injections is recorded.

Assay [3] has as its target T3, recombinant human Pds5B_(21–1120) Y445A/N447A (human, UniProt Q9NTI5 21-1120, Y445A | N447A).
T3 sequence (looked up): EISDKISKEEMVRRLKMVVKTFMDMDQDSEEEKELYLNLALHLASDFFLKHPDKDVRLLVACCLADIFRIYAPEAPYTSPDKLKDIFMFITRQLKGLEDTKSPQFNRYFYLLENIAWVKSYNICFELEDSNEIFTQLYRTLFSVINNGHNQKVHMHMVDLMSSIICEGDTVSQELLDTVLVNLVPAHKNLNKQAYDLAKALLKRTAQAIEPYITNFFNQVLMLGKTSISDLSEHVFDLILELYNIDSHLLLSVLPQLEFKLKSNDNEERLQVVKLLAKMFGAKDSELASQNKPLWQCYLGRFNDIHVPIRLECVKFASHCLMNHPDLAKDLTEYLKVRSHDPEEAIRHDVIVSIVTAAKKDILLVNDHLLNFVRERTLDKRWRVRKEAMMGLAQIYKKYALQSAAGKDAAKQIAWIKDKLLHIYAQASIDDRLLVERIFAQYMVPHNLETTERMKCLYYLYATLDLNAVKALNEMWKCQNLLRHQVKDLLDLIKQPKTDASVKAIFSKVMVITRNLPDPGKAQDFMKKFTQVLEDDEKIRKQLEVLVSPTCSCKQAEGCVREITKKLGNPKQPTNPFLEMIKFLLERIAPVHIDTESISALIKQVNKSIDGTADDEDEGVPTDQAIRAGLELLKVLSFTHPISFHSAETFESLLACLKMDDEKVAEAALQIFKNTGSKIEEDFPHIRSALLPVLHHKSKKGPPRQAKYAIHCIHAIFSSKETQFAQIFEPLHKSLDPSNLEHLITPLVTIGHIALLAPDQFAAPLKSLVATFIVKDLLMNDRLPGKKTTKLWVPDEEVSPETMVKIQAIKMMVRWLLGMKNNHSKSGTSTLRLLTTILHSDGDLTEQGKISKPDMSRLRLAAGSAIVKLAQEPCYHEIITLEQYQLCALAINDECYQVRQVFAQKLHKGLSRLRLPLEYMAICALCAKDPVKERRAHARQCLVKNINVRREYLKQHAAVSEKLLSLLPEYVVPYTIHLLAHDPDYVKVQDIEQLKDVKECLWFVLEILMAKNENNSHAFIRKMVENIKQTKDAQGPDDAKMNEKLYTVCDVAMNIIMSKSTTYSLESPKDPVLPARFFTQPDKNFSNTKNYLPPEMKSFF
Briefly: pull-down.

In assay [4] the target is T1, recombinant human Pds5B_(1–1120). The assay is described as follows: pull-down. This is another data set of the same source.
Assay [5] deals with T4, selenomethionine-containing Pds5B_(21–1120) (human, UniProt Q9NTI5 21-1120, selenomethionine-containing).
T4 sequence (looked up): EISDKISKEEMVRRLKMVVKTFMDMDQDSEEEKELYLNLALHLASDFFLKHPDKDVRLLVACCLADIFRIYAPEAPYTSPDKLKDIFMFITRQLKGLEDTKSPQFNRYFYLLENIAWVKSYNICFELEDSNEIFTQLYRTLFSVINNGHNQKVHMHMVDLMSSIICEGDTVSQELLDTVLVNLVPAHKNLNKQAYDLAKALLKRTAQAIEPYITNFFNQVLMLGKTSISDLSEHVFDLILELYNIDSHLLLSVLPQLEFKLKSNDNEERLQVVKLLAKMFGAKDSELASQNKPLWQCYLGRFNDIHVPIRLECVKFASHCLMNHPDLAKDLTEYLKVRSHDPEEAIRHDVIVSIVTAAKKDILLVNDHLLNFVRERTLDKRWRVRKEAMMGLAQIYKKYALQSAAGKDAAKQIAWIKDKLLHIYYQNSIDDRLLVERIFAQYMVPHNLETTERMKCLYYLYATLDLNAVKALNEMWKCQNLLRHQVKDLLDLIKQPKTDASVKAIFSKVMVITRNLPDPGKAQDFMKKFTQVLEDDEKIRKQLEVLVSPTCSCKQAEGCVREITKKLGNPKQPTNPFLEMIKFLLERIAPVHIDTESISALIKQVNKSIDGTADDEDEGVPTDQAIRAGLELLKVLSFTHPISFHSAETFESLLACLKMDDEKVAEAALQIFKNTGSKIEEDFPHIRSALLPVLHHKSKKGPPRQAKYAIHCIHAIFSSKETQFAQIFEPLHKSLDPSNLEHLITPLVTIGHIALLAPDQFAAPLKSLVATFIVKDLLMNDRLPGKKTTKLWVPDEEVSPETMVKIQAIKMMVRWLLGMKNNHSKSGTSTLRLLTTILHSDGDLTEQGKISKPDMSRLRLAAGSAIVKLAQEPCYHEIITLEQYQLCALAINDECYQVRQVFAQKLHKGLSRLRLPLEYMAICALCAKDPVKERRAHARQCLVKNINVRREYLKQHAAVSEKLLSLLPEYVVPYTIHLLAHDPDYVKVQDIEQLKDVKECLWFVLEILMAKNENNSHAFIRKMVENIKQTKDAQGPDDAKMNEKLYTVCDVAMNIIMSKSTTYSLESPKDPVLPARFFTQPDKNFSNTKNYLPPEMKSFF
Briefly: crystal structure.

Where two headings read alike, the source gives them in different places.

Consider LDARDLEMSKKVRRSYSRLETLGSASTSTPGRRSCFGFEGL (domain or fragment, human, UniProt Q96FF9 131-171, looked up) [Sororin residues 131–171], for which the binding result in assay [1] was “binds”.

B1: recombinant purified Scc1_(76–150) (domain or fragment, human, UniProt O60216 76-150, looked up)
chain: ADCNEAFIKIKMAFRPGVVDLPEENREAAYNAITLPEEFHDFDQPLPDLDDIDVAQQFSLNQSRVEEITMREEVG
In the case of B1, in assay [2], the Kd came out at 4.3 nM.

B2: GST-Scc1_(76–150) (domain or fragment, human, UniProt O60216 76-150, looked up)
chain: ADCNEAFIKIKMAFRPGVVDLPEENREAAYNAITLPEEFHDFDQPLPDLDDIDVAQQFSLNQSRVEEITMREEVG
For the molecule B2, the binding result in assay [3] was “binds”.
As to DARDLEMSKKVRRSYSRLETLGSASTSTPGRRSCFGFEGL (peptide, UniProt Q96FF9 132-171, looked up) [synthetic Sororin peptide (residues 132–171)], the binding result in assay [4] was “binds”.
For the molecule MTSRFGKTYSRKGGNGSSKFDEVFSNKRTTLST (peptide, UniProt Q7Z5K2 1-33, looked up) [synthetic Wapl_(1–33) peptide], in assay [5], the binding result was “binds”.
